# In the nanobody polyreactivity screen of Harvey et al. (2022):
# Assay: yeast display, Sf9 membrane polyspecificity reagent, FACS + sequencing; frameworks hold sequencing errors
# How it was run: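 In a synthetic yeast display library (Saccharomyces cerevisiae BJ5465), nanobody expression was induced with galactose for 36–48 hours. FACS gates were set low and high (top ~1%) using anti-HA fluorescence for expression and streptavidin fluorescence for binding of the Sf9 membrane reagent. Each polyreactivity label is drawn from the gate of origin.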
row,Sequence,polyreactivity (PSR sort gate)
1,QVQLVESCGGLVQAGGSLRLSCAASGSIFAYYAMGWYRQAPGKERDLVAAISRGGGSTYYADSVTGRFTLSRDNAKNTVYLQMNSLKQEDTAVYYCDAYYAKGRAYDYDYWGQGTQVTVSS,high polyreactivity
2,QVQLVESCGGLVQAGGSLRLSCAASGSIFGWYAMGWYRQAPGKESELVAAISTSTGSTYYADSVKGRFTISRDNAKNTVYLQMNSLKPEDTAVYYCAVVVAGVFLWGVERYDYWGQGTQVTVSS,low polyreactivity
3,QVQLVESCGGLVQAGGSLRLSCAASGSTFRYNAMGWYRQAPGKERELVAAISWSGGSTYYADSVKGRFTISRDNAKNTVYLQMNSLKPEDTAVYYCAKVYFWGALSPDKFDEDYWGQGTQVTVSS,low polyreactivity
4,QVQLVESCGGLVQAGGSLRLSCAASGSTFYLNAMGWYRQAPGKERELVAAIDYRGGSTYYADSVKGRFTISRDYAKNTVYLQMNSLKPEDTAVYYCAKDRPGFLVGWGGGYDYWGQGTQVTVSS,low polyreactivity
5,QVQLVESCGGLVQAGGSLRLSCADSGLTMYGYARGWYRHAPGNERELVATLTRRGGSTYYADSVKGRFTISRDNAKNTVYLQMNSLKPEDPAVYYCAATYQHQNPQGVFSGGYYYWGQGTQVTVAS,high polyreactivity
6,QVQLVESCGGLVQAGGSLRLSCAPSGSTIPPNAMGWNRQAPRQERELVADSSDSSTSYADSVKGRFSISRDNAKNTVYLQMKSQKPEDTAVYYCAAADAGLRSKSYGQQYDYWGQGTQVTVSS,low polyreactivity
7,QVQLVESCGGLVQAGGSLRLTCAASGSTFNWYTMGWYRQAPGKDRELVAAMSRGTGSTYYADSVKGRFTMSRDNANNRVYVQMNSLKPEDTAVYSCAKQGYRYSSFLYDYWGQGTQVTVSS,low polyreactivity
8,QVQLVESCGGLVQAGGTLRLRCAASGFTFYPYSMGWYRQAPWKERELVAAITRGGITYYADSVKGRFTISRDYAKNTVYLQMKSLKPEDTAVYYCNAGWYVSYRWYRSDYWGQGTQVTVSS,high polyreactivity
9,QVQLVESCGGLVQAGSSLRLSCAASVITFYGYAMGWYRQAPGKERELVADITRGGSTNYADSVKGRFTISRDNAKNTVFLQMNSLKPEDSAVYYCAKSTRRFSWYYSTVGYNYWAQGTQVTVSS,high polyreactivity
10,QVQLVESCGGLVQEGGSLRLSCAASGRIFVVSAMGRYRQAPGKERELVAAISKRGGSTYYADSVKGRFTISRDNAKKTVYLQMNSLKPEDTAVYYCAKSRLVRGRSSYDYWGHGTQVTVSS,high polyreactivity
11,QVQLVESCVGLVQAGGSLRLSCAASRSTFDSYAMGWYRQAPGNEREMVASITSRGGRTYYADSVKGRFSISRDNAMNTVYLEMNSLKPEDTAVYYCNAYRRKYYYYQRHGFWGQGTQVTVSS,high polyreactivity
12,QVQLVESCVVLVQAAGSLRLSFAHSGSTFKVYAMGTYRQATGKERELVASISSGGSTNYADSVKGRFTISRDNAKNTVYLQMNSLKPEDTAVYYCALRRYTHRRYRFDYWGQGTQVTVSS,high polyreactivity
13,QVQLVESGAALVQAAGSLRLSCAASGSIFTPYAMGWYRQAPGKERELVAGIRSSGGRTYYADSVKGRFTISRDNAKNTVYLQMNSLKPEDTAVSYCAADQDWYGFVIGFDYWGQGTQVTVSS,low polyreactivity
14,QVQLVESGACLVKAGGSLRLSCAASGSSFYGYAMGWYRQAPGKERELVASITVSVGSTNADSVKGRFTISRDNAKNTVYLQMISLKPEDTAVYYCAAETVHSREQREGDYWGQGTQVSVSS,low polyreactivity
15,QVQLVESGACLVQAGGSLRLSFAASGSIFGWYTMGWYRPAPGKERELVAAISNSGTSSYYADSEKGRFTISRDTAKNTVYLQMNSLKPEDTAVYYCNAYSDLFGSYTDLGEYDYWVQGTQVTVSS,low polyreactivity
16,QVQLVESGAGFFQAGGSLRVSCAASGRTFPVYAMGWYRHAPGNERELVARINSGGRTTYADSVKGRFTISRDNAKNTVYLQMISLNPEDTAVYYCNARSWYYVWRKGYRHGDYWGQGTQVTVSS,high polyreactivity
17,QVQLVESGAGIVQAGGSLRLSCAASGRTCTWYAMGWYTQAPGKERELVAAISKSGGSTYYADSVKGRFTISRDTAKNTVFLQMNSLKPEDTAVYYCNADFYGYFLGYGYWGQGTQVTVSS,low polyreactivity
18,QVQLVESGAGIVQAGGSLRLSCAASGRTFNWYAMGLYTQPPGKERELVAAITYPGGTTYYADSVKGRFTISRDNAKNTVYLQMNSLKPEDTAVYYCAATFRYRRVTPTTRFNYWGQGTQVTVSS,high polyreactivity
19,QVQLVESGAGLVQAGGILRLSCAASGRTFYRNTMGWYRQAPGKEREFVAAISATAGRTYYADSVKGRFTISRDNAKNTVYLQMNSLKPEDTAVYYCAAVPLRNRLPNSWPALDYWGQGTQVTVSS,high polyreactivity
20,QVQLVESGAGLVQAGGRLRLSCAASGFTFYYNAMGWYRQAPGKEREFVAAISRSAGSTTYADSVKGRFTISRDNAKNTVYLQMNSLKPEDTAVYYCNARRSRGKSYDYWGQGTQVTVSS,high polyreactivity
21,QVQLVESGAGLVQAGGSLRFSCAASGFIFVAYAMGLYRPAPGKERELVAAITSSGGTTYYADSVKGRFTISRDNAKNSVYFQMNSLKPEDTAVYYSAAYRRRSPFEYWGQGTQVNVSS,high polyreactivity

row,Sequence,polyreactivity (PSR sort gate)
1,QVQLVESGAGLVQAGGSLRISCDASGSIFWSYAMGWYRQAPGKERELVADITGIGGSTYYADSVKGRFTISRDNAKNTVYLQMNSLKPEDTAVYYCAADTWFTAQTYNFYYRGQGTQVTVSS,high polyreactivity
2,QVQLVESGAGLVQAGGSLRLSCAASGFTLVLNAMGGYSQAPGKERELVAAIRRSAGSTYYADSVKGRFTISRDNAKNTVYLQMNSLKPEDTAVYYSNADYTYTDRRFAPAGGWYYYWGQGTQVTVSS,low polyreactivity
3,QVQLVESGAGLVQAGGSLRLSCAASGGTLRYYAMGWYRPAPGKEREFVASISRSGGSTYYADSVKGRFTISRYNAKNTVYLQMNSLKPEDTAVYYCAAYWSPGYTTGRGYWGQGTQVTVSS,high polyreactivity
4,QVQLVESGAGLVQAGGSLRLSCAASGLTFIYNAMVWYRQAPGKERELVAAISGNGGDTYYADSVKGRFTLSRDNAKNTVYLQMNSLKPEDTAVYYCAADYAYTPITCDEYWGQGTKVTVSS,low polyreactivity
5,QVQLVESGAGLVQAGGSLRLSCAASGLTFRSYAMGWYRQAPGKERELVAAITRSGGSTYYADSVKGRFTISRDNAKNTVYLQMNSLKPEDTAVYYCAARYKGNPDRYGYWGQGTQVTVSS,high polyreactivity
6,QVQLVESGAGLVQAGGSLRLSCAASGPILRTYAKGWYRQAPGKERELVAAISRSGGSSYYADSVKGRFTLSRDNAKNTVYLLMNSLKPEDTAVYYCNKAYGGRGYKYEYWGQGSQVTVSS,high polyreactivity
7,QVQLVESGAGLVQAGGSLRLSCAASGRTFGTNTKGWYRPAPGKEREFVATITSSGGSTYYADSVKGRFTISRDNAKNTVYLQMNSLKPEDTAVYYCATDPYGGKTQYPSLRYDYWGQGTQVTVSS,low polyreactivity
8,QVQLVESGAGLVQAGGSLRLSCAASGSIFNSYAMGWYRQPPGKERELVAAISKAGGSTYYADSVKGRFTISRDNAKNTVYLQMNSQKPEDTAVYYCAARYGRCYDSAYNYWGQGTQVTVSS,high polyreactivity
9,QVQLVESGAGLVQAGGSLRLSCAASGSIFVYYTMGCYRQAPGKEREFVAAISFSGGSTYADSVKGRFTISRDNAKNTVYLQMNSLKPEDTAVYYCNADRWLYTPSKFVEMDFWGQGTQVTVSS,low polyreactivity
10,QVQLVESGAGLVQAGGSLRLSCAASGSNFKWYAMGLYRQAPGKEREFVAAITWSGSGTFYADSVKGRFTISRDNAKKTVYLQMNSLKPEDTAVYYCNKADSYLLYSVTARYFRGFYSWGQVTQVTVSS,high polyreactivity
11,QVQLVESGAGLVQAGGSLRLSCAASGSSFYFNAMGLYRQAPGKERELVAAIDWSGGSTYYADSVKGRFTISRDNAKNTVYLQMNSLKPEDTAVYYCAAPYHYYGNTVGYADYDYWGQVTQVTVSS,low polyreactivity
12,QVQLVESGAGLVQAGGSLRLSCAASGSTFPFYAMGWSRQAPGKERELVAAITSGGSTYADSVKGRFTISRDNAKNTVYLQMNSLKPEDTAVYYCNAEQNPSGLYDYRGVEGEMGYWGQGTQVTVSS,low polyreactivity
13,QVQLVESGAGLVQAGGSLRLSCAASGSTFSRYAMGWYRQAPGKERELVAAISSRGGSTYYADSVKGRFTISRDNAKNTVYLQMNSLKPEDTAVYYCNALTSYQNHVYPYDYWGQGTQVTVSS,high polyreactivity
14,QVQLVESGAGLVQAGGSLRLSCAASGSTFSYYAMGWSRQAPGKERELVAAITSSGGSTYYADSVKGRFTISRDNAKNTVYLQMNSLKQEDTAVYYCNTAYHVPYDYWGQGTQVTVSS,low polyreactivity
15,QVQLVESGAGLVQAGGSLRLSCAASGSTFSYYTMGWYRHAPGKERELVAAITSGGPTNYADSVKGRFTISRDNAKNTVYLQMNSLKPEDTAVYYCAAALYYGWGYYYWGQGTQVTVSS,low polyreactivity
16,QVQLVESGAGLVQAGGSLRLSCAASGSTSTLNAMGWYRQAPGTERELVAAISRSGTSTYYADSVKGRFTISRDNAKNTVYLQMNSLKPEDTAVYYCAAYSYGPPYYYWGQGTQVTVSS,high polyreactivity
17,QVQLVESGAGLVQAGGSLRLSCAASVRIFFYGMGWYIQAPGKQMELVATITSVSNTYYADSVKGRFTISRDNAKNTVYLQMNSLKPEDTAVYYCAARQDRYRYRYGYWGHGTQVTVSS,high polyreactivity
18,QVQLVESGAGLVQAGGSLRLSCAAYGFIFRTNAMGWYRQAPGKERELVAAISNSGGRTYYADSVKGRFTLSRDNSKNTVYLQMNSLKPEDTAVYYCAAVLWYDIYYGGDYWGQGTQVTVSS,high polyreactivity
19,QVQLVESGAGLVQAGGSLRLSCADSVNTFWYYTMGWYRQAPGKERELVAAISRGGRPYYADSVKGRFTISRDNAKNTVYLQMNSLKPEDTAVYNCNKPAPYTGSFDRSGIFDYWGQGTQVTVSS,high polyreactivity
20,QVQLVESGAGLVQAGGSLRLSCASSGYIFDRYAMGWYRQAPGKERELVAAISGRGGSTYYADSVKGRFTISRDNAKYTVYLKMNSLKPEDTAVYYCARDVYVRYGQRARYDSWGQGTQVTVSS,high polyreactivity
21,QVQLVESGAGLVQAGGSLRLSFAASGRTFVYNAMAWYRQAPGKERELVAAIDGGGDRTYYADSVKGRFTISRDNAKNTVYLQMNSLKPEDTAVYYCARDPGDTYYYSYPEGDYWGQGTLVTVSS,low polyreactivity
